Source: patent publication US20170058005A1 (priority 2014, published 2017)
Entries after “also recorded” stand apart in the source; their conditions may differ.

Key:
DRB1*0101 (DR1) = DRB1*0101 (DR1) (Homo sapiens, UniProt P01903+P01911, A100R/D57E/F55L/F60I/F76Y/I96L/L162R/M171V/P40L/Q125E/R42F/V115G/Y59C); format: binding
DRB1*0301 (DR3) = DRB1*0301 (DR3) (Homo sapiens, UniProt P01903+P01911, A100K/A102G/A103R/A169T/F55Y/I96L/K41T/L162R/M171V/P40S/Q125H/Q178H/Q39Y/R42S/S66N/T106N/T262R/W38E/Y61H); format: binding
DRB1*0401 (DR4) = DRB1*0401 (DR4) (Homo sapiens, UniProt P01903+P01911, A100K/A169T/F76Y/I96L/K127E/L162R/M171V/N62H/P40V/Q125Y/R42H/S133A/S149N/S66Y/V115G/V209L/W38E); format: binding
DRB1*0701 (DR7) = DRB1*0701 (DR7) (Homo sapiens, UniProt P01903+P01911, A100R/A102G/A103Q/D57E/D86V/E43K/F76Y/K127E/L162R/M171V/P40G/Q125H/Q99D/R33Q/R42Y/R54Q/S133A/S66F/T210M/V115G/Y107V/Y59L/Y89S); format: binding
DRB1*1101 (DR11) = DRB1*1101 (DR11) (Homo sapiens, UniProt P01903+P01911, A100R/A169T/A87E/I96F/K41T/L162R/M171V/P40S/Q125H/Q178H/Q39Y/Q99D/R42S/S66Y/T262R/V115G/W38E); format: binding
DRB1*1301 (DR13) = DRB1*1301 (DR13) (Homo sapiens, UniProt P01903+P01911, A100E/A169T/K41T/L162R/M171V/P40S/Q125H/Q178H/Q39Y/Q99D/R42S/S66N/T262R/W38E/Y61H); format: binding
DRB1*1501 (DR15) = DRB1*1501 (DR15) (Homo sapiens, UniProt P01903+P01911); format: binding
[1] = tested on: CD4^+ T cells of HLA class II transgenic mice; format: cell-based
HLA-DR molecules = format: binding, human

HQSIGSTLYNKIYLYENMNI
Relative binding affinity of peptide to HLA-DR molecules, DR1 (DRB1*0101 (DR1)): 115
Relative binding affinity of peptide to HLA-DR molecules, DR3 (DRB1*0301 (DR3)): 1
Strong relative binding affinity of peptide to HLA-DR molecules, DR3 (DRB1*0301 (DR3)): + (key: +: Strong binding affinity was defined in this study as a relative activity <10)
Relative binding affinity of peptide to HLA-DR molecules, DR4 (DRB1*0401 (DR4)): 55
Relative binding affinity of peptide to HLA-DR molecules, DR7 (DRB1*0701 (DR7)): 3
Strong relative binding affinity of peptide to HLA-DR molecules, DR7 (DRB1*0701 (DR7)): + (key: +: Strong binding affinity was defined in this study as a relative activity <10)
Relative binding affinity of peptide to HLA-DR molecules, DR11 (DRB1*1101 (DR11)): 44
Relative binding affinity of peptide to HLA-DR molecules, DR13 (DRB1*1301 (DR13)): 5
Strong relative binding affinity of peptide to HLA-DR molecules, DR13 (DRB1*1301 (DR13)): + (key: +: Strong binding affinity was defined in this study as a relative activity <10)
Relative binding affinity of peptide to HLA-DR molecules, DR15 (DRB1*1501 (DR15)): 0.02
Strong relative binding affinity of peptide to HLA-DR molecules, DR15 (DRB1*1501 (DR15)): + (key: +: Strong binding affinity was defined in this study as a relative activity <10)
CD4 T cell response in LF immunized HLA transgenics [1]: recognised by all LF immunized HLA transgenics; also recorded: immunogenic in all three HLA-DR transgenic strains
HLA-restriction based on CD4 T cell response class II HLA transgenics after priming with LF [1]: DR1, DR4, DR15,; also recorded: DQ8, DQ6
Binding across all HLA-DR alleles assayed (HLA-DR molecules): strong to moderate binding across all seven HLA-DR alleles

EQYTHQDEIYEQVHSKGLYV
Relative binding affinity of peptide to HLA-DR molecules, DR1 (DRB1*0101 (DR1)): 1
Relative binding affinity of peptide to HLA-DR molecules, DR3 (DRB1*0301 (DR3)): 245
Relative binding affinity of peptide to HLA-DR molecules, DR4 (DRB1*0401 (DR4)): 237
Relative binding affinity of peptide to HLA-DR molecules, DR7 (DRB1*0701 (DR7)): 0
Relative binding affinity of peptide to HLA-DR molecules, DR11 (DRB1*1101 (DR11)): 35
Relative binding affinity of peptide to HLA-DR molecules, DR13 (DRB1*1301 (DR13)): 15
Relative binding affinity of peptide to HLA-DR molecules, DR15 (DRB1*1501 (DR15)): 13
CD4 T cell response in LF immunized HLA transgenics [1]: immunodominant epitope in both HLA-DR1 and HLA-DR15 transgenics
HLA-restriction based on CD4 T cell response class II HLA transgenics after priming with LF [1]: DRI
Binding across all HLA-DR alleles assayed (HLA-DR molecules): strong to moderate binding across all seven HLA-DR alleles

AKAFAYYIEPQHRDVLQLYA
Relative binding affinity of peptide to HLA-DR molecules, DR1 (DRB1*0101 (DR1)): 115
Relative binding affinity of peptide to HLA-DR molecules, DR3 (DRB1*0301 (DR3)): 39
Relative binding affinity of peptide to HLA-DR molecules, DR4 (DRB1*0401 (DR4)): 51
Relative binding affinity of peptide to HLA-DR molecules, DR7 (DRB1*0701 (DR7)): 97
Relative binding affinity of peptide to HLA-DR molecules, DR11 (DRB1*1101 (DR11)): 4
Relative binding affinity of peptide to HLA-DR molecules, DR13 (DRB1*1301 (DR13)): 9
Relative binding affinity of peptide to HLA-DR molecules, DR15 (DRB1*1501 (DR15)): 8
HLA-restriction based on CD4 T cell response class II HLA transgenics after priming with LF [1]: DR1
Binding across all HLA-DR alleles assayed (HLA-DR molecules): strong to moderate binding across all seven HLA-DR alleles

QNSNEVQEVFAKAFAYYIEP
Relative binding affinity of peptide to HLA-DR molecules, DR1 (DRB1*0101 (DR1)): 0.1
Relative binding affinity of peptide to HLA-DR molecules, DR3 (DRB1*0301 (DR3)): 173
Relative binding affinity of peptide to HLA-DR molecules, DR4 (DRB1*0401 (DR4)): 137
Relative binding affinity of peptide to HLA-DR molecules, DR7 (DRB1*0701 (DR7)): 0.4
Relative binding affinity of peptide to HLA-DR molecules, DR11 (DRB1*1101 (DR11)): 2
Relative binding affinity of peptide to HLA-DR molecules, DR13 (DRB1*1301 (DR13)): 327
Relative binding affinity of peptide to HLA-DR molecules, DR15 (DRB1*1501 (DR15)): 1
HLA-restriction based on CD4 T cell response class II HLA transgenics after priming with LF [1]: DR1
Binding across all HLA-DR alleles assayed (HLA-DR molecules): strong to moderate binding across all seven HLA-DR alleles

SDVLEMYKAIGGKIYIVDGD
Relative binding affinity of peptide to HLA-DR molecules, DR1 (DRB1*0101 (DR1)): 5
Relative binding affinity of peptide to HLA-DR molecules, DR3 (DRB1*0301 (DR3)): >76
Relative binding affinity of peptide to HLA-DR molecules, DR4 (DRB1*0401 (DR4)): 305
Relative binding affinity of peptide to HLA-DR molecules, DR7 (DRB1*0701 (DR7)): 1
Relative binding affinity of peptide to HLA-DR molecules, DR11 (DRB1*1101 (DR11)): 4
Relative binding affinity of peptide to HLA-DR molecules, DR13 (DRB1*1301 (DR13)): 123
Relative binding affinity of peptide to HLA-DR molecules, DR15 (DRB1*1501 (DR15)): 2
CD4 T cell response in LF immunized HLA transgenics [1]: HLA-DQ8 specific response
HLA-restriction based on CD4 T cell response class II HLA transgenics after priming with LF [1]: DQ8
Binding across all HLA-DR alleles assayed (HLA-DR molecules): strong to moderate binding across all seven HLA-DR alleles

EAQLNINQEWNKALGLPKYT
Relative binding affinity of peptide to HLA-DR molecules, DR1 (DRB1*0101 (DR1)): 104
Relative binding affinity of peptide to HLA-DR molecules, DR3 (DRB1*0301 (DR3)): 173
Relative binding affinity of peptide to HLA-DR molecules, DR4 (DRB1*0401 (DR4)): 43
Relative binding affinity of peptide to HLA-DR molecules, DR7 (DRB1*0701 (DR7)): 68
Relative binding affinity of peptide to HLA-DR molecules, DR11 (DRB1*1101 (DR11)): 100
Relative binding affinity of peptide to HLA-DR molecules, DR13 (DRB1*1301 (DR13)): 17
Relative binding affinity of peptide to HLA-DR molecules, DR15 (DRB1*1501 (DR15)): 1
CD4 T cell response in LF immunized HLA transgenics [1]: DQB1*0302 restricted
HLA-restriction based on CD4 T cell response class II HLA transgenics after priming with LF [1]: DR15, DQ8
Binding across all HLA-DR alleles assayed (HLA-DR molecules): strong to moderate binding across all seven HLA-DR alleles
